Assay results published in US20110177504A1.

Molecular target: murine LY6C polypeptide on YAMC cells (murine) (UniProt P0CW02)
Assay: cell-based or functional assay

UniProt P0CW02, sequence (P0CW02 27-109 limits assumed): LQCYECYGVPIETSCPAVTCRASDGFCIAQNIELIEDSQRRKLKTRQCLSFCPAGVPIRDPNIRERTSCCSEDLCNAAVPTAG

CCL2 mRNA, quantitative RT-PCR, YAMC cells on plate-bound antibody 24 h, IFN pre-treatment: 16.1 fold change | CCL2 mRNA, quantitative RT-PCR, YAMC cells on plate-bound antibody 24 h, Media pre-treatment: 8.81 fold change | CCL4 mRNA, quantitative RT-PCR, YAMC cells on plate-bound antibody 24 h, IFN pre-treatment: 16.1 fold change | CCL4 mRNA, quantitative RT-PCR, YAMC cells on plate-bound antibody 24 h, Media pre-treatment: 3.15 fold change | CCL5 mRNA, quantitative RT-PCR, YAMC cells on plate-bound antibody 24 h, IFN pre-treatment: 10.1 fold change | CCL5 mRNA, quantitative RT-PCR, YAMC cells on plate-bound antibody 24 h, Media pre-treatment: 3.31 fold change | CCL7 mRNA, quantitative RT-PCR, YAMC cells on plate-bound antibody 24 h, IFN pre-treatment: 5.81 fold change | CCL7 mRNA, quantitative RT-PCR, YAMC cells on plate-bound antibody 24 h, Media pre-treatment: 3.37 fold change | CCL8 mRNA, quantitative RT-PCR, YAMC cells on plate-bound antibody 24 h, IFN pre-treatment: 110 fold change | CCL8 mRNA, quantitative RT-PCR, YAMC cells on plate-bound antibody 24 h, Media pre-treatment: 12.8 fold change | CCL25 mRNA, quantitative RT-PCR, YAMC cells on plate-bound antibody 24 h, IFN pre-treatment: 1.46 fold change | CCL25 mRNA, quantitative RT-PCR, YAMC cells on plate-bound antibody 24 h, Media pre-treatment: 1.16 fold change | CXCL1 mRNA, quantitative RT-PCR, YAMC cells on plate-bound antibody 24 h, IFN pre-treatment: 13.4 fold change | CXCL1 mRNA, quantitative RT-PCR, YAMC cells on plate-bound antibody 24 h, Media pre-treatment: 11.6 fold change | CXCL2 mRNA, quantitative RT-PCR, YAMC cells on plate-bound antibody 24 h, IFN pre-treatment: 113 fold change | CXCL2 mRNA, quantitative RT-PCR, YAMC cells on plate-bound antibody 24 h, Media pre-treatment: 21.8 fold change | CXCL5 mRNA, quantitative RT-PCR, YAMC cells on plate-bound antibody 24 h, IFN pre-treatment: 151 fold change | CXCL5 mRNA, quantitative RT-PCR, YAMC cells on plate-bound antibody 24 h, Media pre-treatment: 118 fold change | CXCL10 mRNA, quantitative RT-PCR, YAMC cells on plate-bound antibody 24 h, IFN pre-treatment: 12.2 fold change | CXCL10 mRNA, quantitative RT-PCR, YAMC cells on plate-bound antibody 24 h, Media pre-treatment: 5.11 fold change | CXCL12 mRNA, quantitative RT-PCR, YAMC cells on plate-bound antibody 24 h, IFN pre-treatment: -3.02 fold change | CXCL12 mRNA, quantitative RT-PCR, YAMC cells on plate-bound antibody 24 h, Media pre-treatment: -1.99 fold change | lowest coating concentration of antibody giving detectable CXCL5 secretion, ELISA: 1 µg/mL
Substance: Anti-LY6C (clone HK1.4), Southern Biotech (antibody)
